Measured values published in paper doi:10.1101/2021.11.05.467329.
Where “and” joins values, the source holds several entries; their conditions need not be identical. Equal values may be shown once.

Tests used:
Test in all cases: SEC
[1] = target: Plasmodium falciparum glyceraldehyde 3-phosphate dehydrogenase I209T variant (recombinant) (Plasmodium falciparum) (UniProt Q8IKK7)
[2] = target: Plasmodium falciparum glyceraldehyde 3-phosphate dehydrogenase, wild type (recombinant) (Plasmodium falciparum) (UniProt Q8IKK7)
[3] = target: Plasmodium falciparum glyceraldehyde 3-phosphate dehydrogenase V238A variant (recombinant) (Plasmodium falciparum) (UniProt Q8IKK7)

## Plasmodium falciparum glyceraldehyde 3-phosphate dehydrogenase I209T variant (recombinant) (from UniProt Q8IKK7 4-335) (enzyme)
[1]
  stoichiometry N: 4 and 2

## Plasmodium falciparum glyceraldehyde 3-phosphate dehydrogenase, wild type (recombinant) (from UniProt Q8IKK7 4-335) (enzyme)
[2]
  stoichiometry N: 4

## Plasmodium falciparum glyceraldehyde 3-phosphate dehydrogenase V238A variant (recombinant) (from UniProt Q8IKK7 4-335) (enzyme)
[3]
  stoichiometry N: 4 and 2
